Our source for the koff values is PMC9107221 (2022).

Sequences and labels used below:
B1: Chikungunya/SL-CK1 E2 glycoprotein (natural protein)
chain: not shown

Common to all, as to test: SPR
In general terms: SPR reads the build-up and loss of mass on a sensor chip optically.

Experiment [1] addresses TriNb-2E8 (alpaca).
For experiment [2], the target named is BiNb-2E8 (alpaca).
Experiment [3] deals with TriNb-3C5 (alpaca).
Experiment [4] concerns the target BiNb-3C5 (alpaca).
Experiment [5] has as its target B1.

With B1, the koff – broadly, the first-order rate constant of dissociation – is 0.00274 s⁻¹ in experiment [1], 0.000352 s⁻¹ in experiment [2], 0.00609 s⁻¹ in experiment [3] and 0.00549 s⁻¹ in experiment [4].

B2: MoNb-3C5 (VHH)
VHH: AVQLVESGGGLVQAGGSLRLSCAASGRSFSAYTMAWFRQAPGKEREWMASIVRSGGPTYYADSVKDRFTISRENARNTAYLQMNSLKPEDTAVYYCAADLGWTYSRSPELFGSWGQGTQVTVSS
As for B2, in experiment [5], the koff was found to be 0.00991 s⁻¹.
